PMC10380293 (International Journal of Molecular Sciences, 2023)
Values joined by “and” are separate entries in the source; they are usually repeats but may differ in a detail not shown here. Equal values may be shown once.

Legend:
[1] = target: mScarlet-I-PCNA (human, UniProt P12004 1-261); assay: FRET or BRET; competition: 1 µM p15-mNeonGreen and 1 µM mScarlet-I-PCNA with varying inhibitor (0-100 µM p15^51-70, 0-20 µM unlabeled PCNA), 1 h at 37 °C, PBS with 1 mM DTT; sensitized emission; Ki by the Cheng-Prusoff equation; conditions: both partners purified
[2] = target: mScarlet-I-PCNA^C148S (human, UniProt P12004 1-261, C148S); assay: FRET or BRET; 1 µM p15-mNeonGreen (donor) with 0-3.09 µM mScarlet-I-PCNA (acceptor, protomer concentration) in PBS with 1 mM DTT, 37 °C for 1 h, 384 well plate; sensitized emission by the three-channel method, control mNeonGreen/mScarlet-I-PCNA subtracted; apparent for C148S; conditions: both partners purified
mScarlet-I-PCNA^C148S, sequence (P12004 whole entry C148S): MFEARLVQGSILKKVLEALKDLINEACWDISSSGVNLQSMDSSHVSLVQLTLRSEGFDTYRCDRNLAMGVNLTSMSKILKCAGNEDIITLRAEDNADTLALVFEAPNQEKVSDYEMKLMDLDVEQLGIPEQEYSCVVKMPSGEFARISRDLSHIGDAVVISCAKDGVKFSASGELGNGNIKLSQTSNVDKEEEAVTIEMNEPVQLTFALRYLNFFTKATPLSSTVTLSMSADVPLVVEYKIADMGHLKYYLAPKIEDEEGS

mScarlet-I-PCNA, sequence (P12004 whole entry): as the sequence (P12004 whole entry C148S) above, with S148C counted along it

B1: peptide p15^51–70 (peptide)
peptide: NPVCVRPTPKWQKGIGEFFR
Q: What does the source list for B1?
A: IC50 [1]: 9.81 µM; Ki [1]: 2.94 µM and 2.99 µM

B2: p15-mNeonGreen (natural protein, UniProt Q15004 1-111, looked up)
chain: MVRTKADSVPGTYRKVVAARAPRKVLGSSTSATNSTSVSSRKAENKYAGGNPVCVRPTPKWQKGIGEFFRLSPKDSEKENQIPEEAGSSGLGKAKRKACPLQPDHTNDEKE
Q: For B2, which Kd [2] is on record?
A: Its Kd is 3.09 µM.
